From article PMC3573116 (PLoS Pathogens, 2013) come the findings set out here.

For this assay, the target named is T1, DENV2 D2S10 envelope (E) protein on virions (dengue virus 2 (DENV2), strain D2S10).
T1 construct: also called DENV2 virions
Nature of the assay: ELISA. Particulars: one partner purified. (An ELISA detects its analyte on a solid surface through an enzyme-linked reagent.)

B1: chimeric human-mouse MAb E18 (human IgG1), non-modified (antibody, V domains shown)
VH: QIQLVQSGPELKKPGETVKISCKASGYTFTDYSMHWVKQAPGKGLKWMGWFNTETGEPTYADDFKGRFAFSLETSASTAFLQINNLKNEDTATYFCARGGDFYSVDYWGQGTSVTVSS
VL: DIQMTQTTSSLSASLGDRVTISCRASQDITNYLNWYQQKPDGTVKLLIYYTSGLHSGVPSRFSGSGSGTDYSLTISNLEQEDIATYFCQQGNTLPPTFGGGTKLEIK
notes: source: HEK-293T, transfected, purified from supernatant (protein A)
What is called Kd is the concentration at which binding is half-saturated. Lower therefore signals higher affinity. B1: binding was put at a Kd of 2.74 nM.

B2: chimeric human-mouse MAb E18 N297Q (human IgG1, aglycosylated) (antibody, V domains shown)
VH: B1 VH
VL: B1 VL
notes: as for B1
With B2, the Kd worked out at 3.46 nM.

B3: chimeric human-mouse MAb E28 (human IgG1), non-modified (antibody, V domains shown)
VH: QIQLVQSGPELKKPGETVKISCKASGYTFTDYSMHWVKQTPGKGLKWLGWINPKTGEPTYVDDFKGRFAFYLETSSSTAYLQITNLKNEDTATYFCARGYDYYSVDYWGQGTLVTVSS
VL: DIQMTQTTSSLSASLGARVTISCRANQDINNYLHWYQQKPDGTIKLLVYYTSGLHSGVPSRFIGSGSGTDYSLTITNLEQEDIATYFCQQGNTLPLTFGAGTKLELK
notes: as for B1
The molecule B3 registered a Kd of 2.7 nM.

B4: chimeric human-mouse MAb E28 N297Q (human IgG1, aglycosylated) (antibody, V domains shown)
VH: B3 VH
VL: B3 VL
notes: as for B1
With B4, binding was characterised by a dissociation constant (Kd) of 2.88 nM.

B5: chimeric human-mouse MAb E87 (human IgG1), non-modified (antibody, V domains shown)
VH: QVQLQQPGADLVRPGTSVKLSCKASGYTFTIYWMHWVKQRPGQGLEWIGVIDPSAGYTNYSQNFKDKATLTVDTSSSTAYMQLNSLTSEDSAVYYCARHGHYFGTSYWYFDVWGTGTTVTVSS
VL: DIVMSQSPSSLAVSVGEKVTMRCKSSQSLLYSRNQKNYLAWYQQKPGQSPKVLIYWASTRESGVPDRFTGSGSGTDFTLTISSVKTEDLSVYYCQQYYSYPFTFGSGTKLEIK
notes: as for B1
In the case of B5, the Kd worked out at 1.07 nM.

B6: chimeric human-mouse MAb E87 N297Q (human IgG1, aglycosylated) (antibody, V domains shown)
VH: B5 VH
VL: B5 VL
notes: as for B1
In the case of B6, binding was characterised by a dissociation constant (Kd) of 1.43 nM.

B7: human MAb 82.11 LALA (IgG1) (antibody, V domains shown)
VH: QAHLVESGGGVVQPGRSLRLSCAASAFNFSTNAMHWVRQAPGKGLEWVAVISYDGSHKYYADSVKGRFTISRDNSKNTLYLQMNSLRAADTAVYYCATVGVLTWPVNAEYFHHWGQGSLVSVSS
VL: QSVLTQPPSVSGAPGQRVTISCTGSSSNIGAGYDVHWYQQLPGTAPKLLICGNNNRPSGVPDRFSGSKSGTSASLAITGLQAEDEADYYCQSYDSSLTGVVFGGGTKLTVL
notes: source: HEK-293T, purified (protein A, size-exclusion chromatography)
In turn, B7 registered a Kd of 0.91 nM.

B8: chimeric human-mouse MAb E44 (human IgG1), non-modified (antibody, V domains shown)
VH: QVQLKESGPGLVAPSQSLSITCTVSGFSLTSYGVDWVRQSPGKGLEWLGVIWGAGSTNYNSAFRSRLSISKDNSKSQVFLKMNSLQTDDTAMYYCASGTGTGAMDYWGQGTSVTVSS
VL: DIVLTQSPATLSVTPGDSVSLSCRASQSISNNLHWYQQKSHESPRLLIFYSSQSISGIPSRFSGSGSGTDFTLRINSVETEDFGMYFCQQSNNWPHTFGRGTKLDMK
notes: as for B1
Turning to B8, the affinity, expressed as Kd, was 0.14 nM.

B9: chimeric human-mouse MAb E44 N297Q (human IgG1, aglycosylated) (antibody, V domains shown)
VH: B8 VH
VL: B8 VL
notes: as for B1
The molecule B9 gave a Kd of 0.84 nM.

B10: human MAb 87.1 LALA (IgG1) (antibody, V domains shown)
VH: EVQLVESGGGLVQPGRSLRLSCAASGFTFDDYAMFWVRQAPGKGLEWISGISWNSATIGYADSVKGRFTISRDNAKKSLDLQMNSLRPDDTALYYCAKGGPRGLQLLSSWVDYWGQGTLVTVSS
VL: DIQMTQSPSSLSASVGDRVTITCRASQDIRRYLNWYQQRPGRVPQLLIYTTSTLQSGVPSRFSGSGSVTDFTLTISSLQPEDFGTYYCQQSYSPPHTFGQGTKLEIK
notes: as for B7
For the molecule B10, the Kd was determined as 0.34 nM. Compared with the last molecule, the Kd is about 2.5-fold lower.

B11: chimeric human-mouse MAb E76 (human IgG1), non-modified (antibody, V domains shown)
VH: QVTLKESGPGILQSSQTLSLTCSFSGFSLSTSSMGVSWIRQPSGKGLEWLAHIYWDDDKRYSPSLKSRLTISKDTSRNQVFLKITSVENVDSATYYCARKDGYVPYSLDYWGQGISVTVSS
VL: DIVMTQSHKFMSTSVGDRVSISCKASQAVGTAVAWYQQKPGQSPKLLIYWASTRHTGVPDRFTGSGSGTDFTLTINNVQSEDLADYFCHQYTSYPLTFGTGTKLELK
notes: as for B1
B11 came in with a Kd of 0.84 nM.

B12: chimeric human-mouse MAb E76 N297Q (human IgG1, aglycosylated) (antibody, V domains shown)
VH: B11 VH
VL: B11 VL
notes: as for B1
Turning to B12, the Kd was found to be 1.1 nM. The Kd values of the last two molecules are within 1.5-fold of each other.

B13: chimeric human-mouse MAb E60 (human IgG1), non-modified (antibody, V domains shown)
VH: EVQVQQSGPELVTPGASVKISCKTSGYTFTEYTVHWVKQSHGKSLEWIGGINPTSGGTNYNQRFRGKATLTVDRSSSTAYMELRSLTSEDSAVYFCAGTLYGYPFDFWGQGTTLTVSS
VL: DILMTQSPSSMSVSLGDSVSITCHASQGISGNIGWLQQKPGKSFKGLIYHGTNLEEGVPSRFSGSGSGADYSLTISSLESEDFADYYCVQYGQFPPTFGGGTKLEIK
notes: also called intact E60; E60 parent; source: HEK-293T, transfected, purified from supernatant (protein A)
B13: binding was characterised by a dissociation constant (Kd) of 1.14 nM.

B14: chimeric human-mouse MAb E60 N297Q (human IgG1, aglycosylated) (antibody, V domains shown)
VH: B13 VH
VL: B13 VL
notes: also called modified E60; source: HEK-293T, transfected, purified from supernatant (protein A)
B14 came in with a Kd of 1.18 nM.
